Reference: patent US20180319875A1 (ANN AND ROBERT H LURIE CHILDREN S HOSPITAL OF CHICAGO, published 2018)

Tests used:
[1] = molecular target: T1, Recombinant human Cripto-1 (rhCripto-1-1) (human, UniProt P13385 31-172, limits assumed); assay: SPR; the curves are labelled hrCripto 4nM, 8nM, 16nM and 32nM, so Cripto-1 is the injected molecule (the legend paragraph 37 words panel A as Nodal to Cripto)
T1 construct: Bought protein
T1 sequence (looked up): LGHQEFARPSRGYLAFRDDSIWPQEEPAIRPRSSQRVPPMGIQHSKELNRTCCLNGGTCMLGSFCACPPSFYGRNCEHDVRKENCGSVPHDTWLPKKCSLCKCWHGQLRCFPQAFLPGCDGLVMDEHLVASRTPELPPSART

[2] = molecular target: T1, Recombinant human Cripto-1 …; assay: SPR, average of two formats (Nodal to Cripto and Cripto to Nodal)
[3] = molecular target: T1, Recombinant human Cripto-1 …; assay: SPR; the curves are labelled Nodal 10nM, 25nM, 50nM and 100nM, so Nodal is the injected molecule (the legend paragraph 37 words panel B as Cripto to Nodal)

B1: Recombinant human Nodal protein (rhNodal, E. coli derived His238-Leu347 with an N-terminal Met) (ligand)
chain: MHHLPDRSQLCRKVKFQVDFNLIGWGSWIIYPKQYNAYRCEGECPNPVGEEFHPTNHAYIQSLLKRYQPHRVPSTCCAPVKTKPLSMLYVDNGRVLLDHHKDMIVEECGCL
notes: range 238-347; also called full length Nodal; rNodal
[1]
  Kd: 3.7 nM
[2]
  Kd: ~4 nM
[3]
  Kd: 5.8 nM
